This note sets out measurements from PMC5014550, “Mitochondrial Bol1 and Bol3 function as assembly factors for specific iron-sulfur proteins” (eLife, 2016).

The chains are these.
B1: human GLRX5 (residues 32-157) with N-terminal His-tag (natural protein, UniProt Q86SX6 32-157, looked up)
chain: AGSGAGGGGSAEQLDALVKKDKVVVFLKGTPEQPQCGFSNAVVQILRLHGVRDYAAYNVLDDPELRQGIKDYSNWPTIPQVYLNGEFVGGCDILLQMHQNGDLVEELKKLGIHSALLDEKKDQDSK
notes: Chemically reconstituted with a [2Fe-2S] cluster (holo form, >85% holo); holo-GLRX5 alone eluted as a homodimer; also called holo-GLRX5; source: E. coli BL21 (DE3), pET-Duet1, purified (HisTrap HP, Superdex 200 gel filtration)

Data set [1] deals with the molecule itself. The experiment in a line: SEC; gel filtration in buffer R of holo-GLRX5 alone, co-reconstituted equimolar GLRX5-BOLA1 and holo-GLRX5-BOLA3, recorded at 420 nm and 280 nm; fractions analysed by Coomassie and immunostaining.
Data set [2] deals with T1, human GLRX5, protein used for NMR (human, UniProt Q86SX6 32-157).
T1 construct: human mitochondrial monothiol glutaredoxin GLRX5; Used as apo form with 5 mM GSH, or chemically reconstituted with a [2Fe-2S] cluster; the assay's format says which; also called apo-GLRX5; holo-GLRX5; source: produced as previously reported (Banci et al., 2014)
T1 sequence (looked up): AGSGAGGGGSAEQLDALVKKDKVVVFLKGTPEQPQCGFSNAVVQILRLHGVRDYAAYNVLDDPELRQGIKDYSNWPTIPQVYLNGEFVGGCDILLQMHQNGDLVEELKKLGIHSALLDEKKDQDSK
The experiment in a line: NMR titration; 1H-15N HSQC; 15N-labeled BOLA1 or BOLA3 titrated with unlabeled apo-GLRX5 and vice versa; 15N R1 and R2 relaxation on the final mixtures; degassed buffer N (50 mM phosphate pH 7, 5 mM GSH, 5 mM DTT), 10% D2O, 298 K. The note with it: both partners purified.

For data set [3], the target named is T2, human NFU1 (residues 57-254) with N-terminal His-tag (human, UniProt Q9UMS0 57-254).
T2 construct: Used as apo form or chemically reconstituted holo form carrying a [4Fe-4S] cluster; the assay's format says which; also called apo-NFU1; holo-NFU1; source: E. coli BL21 (DE3), pET-Duet1, purified (HisTrap HP, Superdex 200 gel filtration)
T2 sequence (looked up): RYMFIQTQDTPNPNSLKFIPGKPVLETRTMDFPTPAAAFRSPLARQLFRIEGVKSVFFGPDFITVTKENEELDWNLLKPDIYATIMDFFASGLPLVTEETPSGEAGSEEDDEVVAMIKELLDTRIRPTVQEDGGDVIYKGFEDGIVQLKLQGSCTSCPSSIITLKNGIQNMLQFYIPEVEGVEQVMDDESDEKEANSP
The experiment in a line: MST; 200 nM NT-647-labeled BOLA1 or BOLA3, titrated with unlabeled chemically reconstituted holo-NFU1 carrying a [4Fe-4S] cluster (200 µM to 6.1 nM); buffer T, 21°C, anaerobic. The note with it: both partners purified.

Data set [4] concerns the target T3, human NFU1 (residues 57-254) with N-terminal His-tag (human, UniProt Q9UMS0 57-254).
T3 chain: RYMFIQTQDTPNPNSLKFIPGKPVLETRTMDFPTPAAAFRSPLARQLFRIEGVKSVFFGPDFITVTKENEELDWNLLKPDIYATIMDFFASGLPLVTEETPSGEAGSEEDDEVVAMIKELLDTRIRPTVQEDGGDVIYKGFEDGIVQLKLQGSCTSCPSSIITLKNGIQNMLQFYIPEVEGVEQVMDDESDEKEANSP
The experiment in a line: MST; apo-NFU1, anaerobic.

Data set [5] addresses T2, human NFU1 (residues 57-254) with …. The experiment in a line: MST; 200 nM NT-647-labeled BOLA1 or BOLA3, titrated with unlabeled apo-NFU1 (200 µM to 6.1 nM); buffer T (50 mM KPi pH 7.4, 150 mM NaCl, 5% glycerol, 0.05 mg/ml BSA, 0.05% Tween20), 21°C, anaerobic. The note with it: both partners purified.
Data set [6] has as its target T3, human NFU1 (residues 57-254) with …. The experiment in a line: MST; holo-NFU1, anaerobic.
The target in data set [7] is B1. The data set can be described thus: SEC; gel filtration in buffer R of holo-GLRX5 alone, co-reconstituted equimolar GLRX5-BOLA1 and holo-GLRX5-BOLA3, recorded at 420 nm and 280 nm; fractions analysed by Coomassie and immunostaining. The note with it: both partners purified. Background: Size exclusion chromatography separates by hydrodynamic size, large species first.

Regarding B1, the “stoichiometry N” value in data set [1] is 2.

B2: human BOLA3 (residues 27-107), NMR construct (natural protein, UniProt Q53S33 27-107, looked up)
chain: ATQTEGELRVTQILKEKFPRATAIKVTDISGGCGAMYEIKIESEEFKEKRTVQQHQMVNQALKEEIKEMHGLRIFTSVPKR
notes: human BOLA3, residues 27-107, construct for NMR; 15N- or 13C,15N-labelled where observed by NMR; His-tag cleaved by tobacco etch virus protease; also called 15N-labeled BOLA3; source: E. coli BL21(DE3)GOLD, pET15 vector, purified; not shown: His-tag, N-terminal, cleaved
On to B2, for which the “stoichiometry N” value in data set [2] was 1.

B3: human BOLA3 (residues 25-107) with N-terminal His-tag (natural protein, UniProt Q53S33 25-107, looked up)
chain: MFATQTEGELRVTQILKEKFPRATAIKVTDISGGCGAMYEIKIESEEFKEKRTVQQHQMVNQALKEEIKEMHGLRIFTSVPKR
notes: Labelled with NT-647 dye in MST; source: E. coli BL21 (DE3), pET-Duet1, purified (HisTrap HP, Superdex 200 gel filtration)
For B3, the Kd in data set [3] is 800 nM; in data set [4], 3570 nM; in data set [5], ~3000 nM.

B4: human BOLA1 (residues 30-137) with N-terminal His-tag (natural protein, UniProt Q9Y3E2 30-137, looked up)
chain: GPVEAAIRTKLEEALSPEVLELRNESGGHAVPPGSETHFRVAVVSSRFEGLSPLQRHRLVHAALAEELGGPVHALAIQARTPAQWRENSQLDTSPPCLGGNKKTLGTP
notes: as for B3
As to B4, the Kd in data set [6] was 2140 nM; in data set [4] it was 3590 nM; in data set [5], ~3000 nM. Moreover, the binding result in data set [7] is on record as “binds”.

B5: human BOLA1 (residues 21-137), NMR construct (natural protein, UniProt Q9Y3E2 21-137, looked up)
chain: QGSAGSGAIGPVEAAIRTKLEEALSPEVLELRNESGGHAVPPGSETHFRVAVVSSRFEGLSPLQRHRLVHAALAEELGGPVHALAIQARTPAQWRENSQLDTSPPCLGGNKKTLGTP
notes: human BOLA1, residues 21-137, construct for NMR; 15N- or 13C,15N-labelled where observed by NMR; His-tag cleaved by tobacco etch virus protease; also called 15N-labeled BOLA1; source: E. coli BL21(DE3)GOLD, pETG20A vector, purified; not shown: His-tag, N-terminal, cleaved
B5: the “stoichiometry N” value in data set [2] turned out to be 1.

The term stoichiometry N denotes the number of molecules, sites or subunits per partner or assembly. By Kd is commonly meant the concentration at which binding is half-saturated. High values mean lower affinity, low ones higher affinity.
